This note sets out measurements from paper PMC6343778 (mAbs, 2018).

Data set [1] is described as follows: differential scanning fluorimetry. The following applies: glycan gained; control: wild-type HER2 ECD alone or human IgG1 Fc alone. (In general: Differential scanning fluorimetry follows unfolding on heating by fluorescence.)
Data set [2] has as its target T1, human MICA*002 α3 domain with a C-terminal His8 (Homo sapiens, MICA*002, UniProt Q29983). Kind of data set: SPR. (SPR reads the build-up and loss of mass on a sensor chip optically.)
Data set [3] concerns the target T2, human MICA*004 α3 domain with a C-terminal His8 (Homo sapiens, MICA*004, UniProt Q29983). The data set is described as follows: SPR.
The target in data set [4] is T3, human MICB*005 α3 domain with a C-terminal His8 (Homo sapiens, MICB*005, UniProt Q29980). Kind of data set: SPR.
Data set [5] concerns the target T3, human MICB*005 α3 domain with a …. The data set is described as follows: cell-based or functional assay.
The target in data set [6] is T4, human MICA*008 α3 domain with a C-terminal His8 (Homo sapiens, MICA*008).
T4 chain: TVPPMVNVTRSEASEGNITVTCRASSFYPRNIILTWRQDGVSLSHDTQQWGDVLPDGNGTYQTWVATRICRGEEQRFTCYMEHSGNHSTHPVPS
Kind of data set: SPR.

Data set [7] has as its target T1, human MICA*002 α3 domain with a …. Kind of data set: cell-based or functional assay.
Data set [8] concerns the target T2, human MICA*004 α3 domain with a …. Kind of data set: cell-based or functional assay.
The target in data set [9] is T4, human MICA*008 α3 domain with a …. The data set is described as follows: cell-based or functional assay.

In the case of HER2 ECD: V308N, the stability_or_folding result in data set [1] is “no change”.

Consider HER2 ECD: S310N, for which, in data set [1], the stability_or_folding result is listed as “no change”.

As to HER2 ECD: K333N, the stability_or_folding result in data set [1] is given as “no change”.

B1: anti-MICA/B antibody 6E1 (hybridoma-derived mouse antibody) (antibody, V domains shown)
VH: QGQMQQSGAELVKPGASVKLSCKTSGFTFSDNYISWLKQKPGQSLEWIAWIYAGTGGSSYNQKFRDKAQLTVDTSSRTAYMQLSSLTTEDSAIYYCARHDYYGTSGAWFAYWGRGTLVTVSA
VL: DVLMTQTPLSLPVSLGDQASISCRSSQHIVHSNENTYLEWYLQKPGQSPKLLIYKVSNRFSGVPDRFSGSGSGTDFTLKISRVEAEDLGVYYCFQGSHVPWTFGGGTKLEIK
In the case of B1, the values for the Kd in [2], in [3] and in [4] were 2.96 nM, 8.42 nM and 5.75 nM, respectively. For the same molecule, in data set [5], the “EC50 of inhibition of MICB*005 shedding from the HCC1534 cell line” value (shortened to “EC50 of inhibition of MICB*005 shedding”) came to 0.0724 µg/mL. The “Max % inhibition of MICB*005 shedding from the HCC1534 cell line” value (shortened to “Max % inhibition of MICB*005 shedding”) in [5] worked out at 58%.

B2: anti-MICA/B antibody 1D5 (hybridoma-derived mouse antibody) (antibody, V domains shown)
VH: EIQLQQSGPELVKPGASVKVSCKASGYAFTSQNIYWVKQSHGKSLEWIGYIEPYNVVPMYNPKFKGKATLTVDKSSSSAYIHLNSLTSEDSAIYYCARSGSSNFDYWGQGTTLTVSS
VL: EIILTQSPTTMAASPGEKITITCSASSSISSHYLHWYQQKSGFSPKLLIYRTSNLASGVPARFSGSGSGTSYSLTIGTMEAEDVATYYCQQGSSLPLTFGAGTKLEIK
For B2, the Kd (usually the free concentration of one partner at which half of the binding sites on the other are occupied at equilibrium, for simple one-to-one binding) stood at 0.675 nM in [2], 0.486 nM in data set [3], 1.09 nM in data set [4] and 0.42 nM in data set [6]. For the same molecule, in data set [7], the “EC50 of inhibition of MICA*002 shedding from the PANC1 cell line” value is 0.0341 µg/mL. The “EC50 of inhibition of MICA*004 shedding from the HCC1534 cell line” value in data set [8] came out at 0.0136 µg/mL. In addition, the “Max % inhibition of MICA*004 shedding from the HCC1534 cell line” value in [8] stood at 65%. Moreover, the “EC50 of inhibition of MICB*005 shedding” value in [5] came to 0.0386 µg/mL. Further, in data set [5], the “Max % inhibition of MICB*005 shedding” value was determined as 59%. Moreover, the “EC50 of inhibition of MICA*008 shedding from the MEL-JUSO cell line” value in [9] is 0.0207 µg/mL.

B3: anti-MICA/B antibody 13A9 (hybridoma-derived mouse antibody) (antibody, V domains shown)
VH: QVQLQQSGAELVRPGTSVKVSCKASGYAFTNYLIEWVKQRPGQGLEWIGAINPGSGATNYNEKFKDKARLTADKSSNTAYLQFSSLTSDDSAVYFCARFLGNYFDNWGQGATLTVSS
VL: DIQMTQSPASLSASVGETVTITCRASGNIHSYLAWYQQKQGKSPQLLVYYAETLADGVPSRFSGRGSGTQYSLKINSLQPEDFGSYFCQQFWTTPYTFGGGTKVEIK
As to B3, the Kd came to 0.499 nM in [2], 1.55 nM in data set [3], 0.968 nM in [4] and 0.94 nM in data set [6]. The “EC50 of inhibition of MICA*002 shedding from the PANC1 cell line” value in data set [7] was determined as 0.418 µg/mL. The “EC50 of inhibition of MICA*004 shedding from the HCC1534 cell line” value in data set [8] was 0.599 µg/mL. Moreover, the “Max % inhibition of MICA*004 shedding from the HCC1534 cell line” value in [8] is 56%. The “EC50 of inhibition of MICB*005 shedding” value in data set [5] was found to be 0.0349 µg/mL. Moreover, the “Max % inhibition of MICB*005 shedding” value in [5] is 76%. For the same molecule, in data set [9], the “EC50 of inhibition of MICA*008 shedding from the MEL-JUSO cell line” value is 0.794 µg/mL.
